Test results published in article PMC10592267.

Target: poplar cellulose synthase isoform-8 (CesA8) from hybrid aspen (hybrid aspen (poplar))
Test: cryo-EM structure; purified CesA8 in 0.02% GDN, incubated with 20 mM MgCl2 and 5 mM UDP or UDP-Glc for 30 min on ice before grid preparation; non-uniform refinement with C3 symmetry

Substance: poplar cellulose synthase isoform-8 (CesA8) from hybrid aspen (enzyme)
- stoichiometry N: 3
